Consider six substances from paper PMC5619814.

For test [1], the target named is soluble human neonatal Fc receptor (hFcRn) (human) (UniProt P55899). Nature of the test: SPR; ProteOn XPR36, GLC chip; rbFcRn (about 1200 RU) or hFcRn (about 1600 RU) immobilised by amine coupling; IgG injected at 8.34-133 nM, 100 μl/min, PBS-T pH 6.0, 25°C; heterogeneous ligand model (two classes of non-interacting sites).
Test [2] has as its target soluble rabbit neonatal Fc receptor (rbFcRn), heterodimer of truncated rbFcRn α-chain and rabbit β2-microglobulin (rabbit). The description is as above.
The target is the same in test [3].
Test [4] concerns the target human IgG1 (Omalizumab) (human). Nature of the test: SPR; ProteOn XPR36, GLC chip; rbIgG (about 1900 RU) or hIgG1 (about 2100 RU) immobilised by amine coupling; rbFcRn or hFcRn injected at 37.5-600 nM, 100 μl/min, PBS-T pH 6.0, 25°C; Langmuir 1:1 model. (In SPR one partner is held on a chip, and binding of the other changes the refractive index at the surface.)

As for human IgG2 (Abcam) (antibody), the KD1 (high affinity class of sites, heterogeneous ligand model) in test [1] is 5.43 nM; in test [2] it was 7.46 nM. Further, the KD2 (low affinity class of sites, heterogeneous ligand model) is 34.7 nM in test [1] and 106 nM in test [2].
The like results for human IgG4 (Abcam) (antibody) were, in that order, 2.36 nM, 3.86 nM, 20.2 nM and 53.5 nM.
For human IgG1 (Omalizumab) (antibody), the FcRn-mediated recycling assay in rabbit peritoneal macrophages: relative fluorescence intensity of Alexa 488-hIgG1 left in the cells after 20 min pulse at pH 6.0 and 30 min chase at pH 7.4 in test [3] is 60%. In test [1], the KD1 (high affinity class of sites, heterogeneous ligand model) is 9.99 nM and the KD2 (low affinity class of sites, heterogeneous ligand model) stood at 57.2 nM. Moreover, in test [2], the KD1 (high affinity class of sites, heterogeneous ligand model) was 12.9 nM and the KD2 (low affinity class of sites, heterogeneous ligand model) is 71.9 nM.
In test [1], human IgG3 (Abcam) (antibody) displayed a KD1 (high affinity class of sites, heterogeneous ligand model) of 6.06 nM and a KD2 (low affinity class of sites, heterogeneous ligand model) of 17.4 nM. Also, in test [2], the KD1 (high affinity class of sites, heterogeneous ligand model) was 2.57 nM and the KD2 (low affinity class of sites, heterogeneous ligand model) came out at 59.2 nM.
What is called Kd is a measure of binding affinity in units of concentration. A higher Kd goes with a looser complex. Broadly, the koff is a measure of how fast the partners let go of each other. Read a low koff as slow dissociation. What is called kon is a measure of how fast the partners come together. The low end stands for slower complex formation, the high end for faster complex formation. In test [4], “soluble human neonatal Fc receptor (hFcRn) (from UniProt P55899 24-297; P61769 21-119) (complex)” came in with a dissociation constant Kd of 4.3 nM, a koff of 0.000592 s⁻¹ and a kon of 138000 M⁻¹ s⁻¹.
Turning to “soluble rabbit neonatal Fc receptor (rbFcRn), heterodimer of truncated rbFcRn α-chain and rabbit β2-microglobulin (complex)”, in test [4], the dissociation constant Kd is 1.19 nM, the koff was 0.00039 s⁻¹ and the kon worked out at 327000 M⁻¹ s⁻¹.
